Results published in US20240360214A1 (Pfizer, published 2024).

Legend:
huLILRA1 = huLILRA1 (human, UniProt O75019 17-461, limits assumed); assay: SPR (Biacore), antibody captured
huLILRA2 = huLILRA2 (human, UniProt Q8N149 24-449, limits assumed); assay: SPR (Biacore), antibody captured
huLILRA5 = huLILRA5 (human, UniProt A6NI73 42-268, limits assumed); assay: SPR (Biacore), antibody captured
[1] = target: T1, LILRB2 expressed on THP1 cells (human, UniProt Q8N423 22-597); assay: flow cytometry competition with PE HLA-G tetramer on THP1-LILRB2 cells (THPB2)
T1 construct: whole, on cells; also called THP1 LILRB2 expressing cells; THP1-LILRB2 cells
Description: (§1) LILRB1 or LILRB2 overexpressing THP1 cells were prepared in FACS buffer (0.5% BSA in PBS) and seeded in 100 μl/well (96 well plate) at 1λ10⁶ cells/ml concentration. The tested antibodies were serially diluted 3-fold into assay buffer starting from 200 nM. 40 μl of serial diluted antibody together with 40 μl of PE labelled HLA-G tetramer (FRED HUTCH IMT40509) at 2 ug/ml were added to each well and incubated on ice for 1 hour. The cells were washed 2 times with FACS buffer and resuspended in 50 μl/well FACS buffer containing 1:1000 dilution of LIVE/Dead fixable violet dead cell stain (Invitrogen #L34964), incubated on ice for 15 minutes. The cells were then washed with FACS buffer for 2 times and resuspended in 80 μl of Cytofix buffer (BD Cat #554655).

[2] = target: T2, human LILRB2 (huLILRB2), purified recombinant protein (human, UniProt Q8N423 22-458, limits assumed); assay: SPR (Biacore 8K, 37 C), antibody captured by anti-human Fc, huLILRB2 as analyte, 1:1 fit
T2 construct: Bought protein, used as the SPR analyte and as the ELISA coat; also called huLILIB2
Description: Biacore kinetic assays were conducted at 37° C. with a collection rate of 10 Hz using the Biacore 8K and 8K+ instruments (Cytiva). […] The final capture levels of the antibodies ranged from 20 resonance units (RU) to 60 RU. HBS-EP+pH 7.4 (10 mM HEPES pH 7.4, 150 mM NaCl, 3 mM EDTA, 0.05% Tween 20) was used as sample and running buffer. Flow cell 1 was used as a reference flow cell. Two-fold serial dilutions of human LILRB2 or LILRB1 (R&D Systems, Catalog number: 8429-T4) were prepared with concentrations from 45 nM to 1.667 nM for LILRB2; 405 nM to […] for LILRB1. Dilutions were prepared in duplicate and injected over all flow cells for 60 s at flow rate of 50 μl per minute. Dissociation was monitored for 600 s and the surface was regenerated with two 30 s injections of 3M MgCl₂ at flow rate of 50 μl per minute. The resulting data was double referenced (Myszka, D. G. Improving biosensor analysis. J. Mol. Recognit. 12:279-284; (1999). Rate constants and affinities were determined by fitting the sensorgram data to a Langmuir 1:1 model using Biacore Insight Evaluation software version 3.0.12 (Cytiva).

[3] = target: T1, LILRB2 expressed on THP1 cells; assay: flow cytometry competition with PE HLA-G tetramer on THP1-LILRB2 cells; lower end of the printed range 1.7-6 nM
Description: as §1

[4] = target: T1, LILRB2 expressed on THP1 cells; assay: flow cytometry competition with PE HLA-G tetramer on THP1-LILRB2 cells; upper end of the printed range 1.7-6 nM
Description: as §1

T1 sequence (Q8N423 22-597): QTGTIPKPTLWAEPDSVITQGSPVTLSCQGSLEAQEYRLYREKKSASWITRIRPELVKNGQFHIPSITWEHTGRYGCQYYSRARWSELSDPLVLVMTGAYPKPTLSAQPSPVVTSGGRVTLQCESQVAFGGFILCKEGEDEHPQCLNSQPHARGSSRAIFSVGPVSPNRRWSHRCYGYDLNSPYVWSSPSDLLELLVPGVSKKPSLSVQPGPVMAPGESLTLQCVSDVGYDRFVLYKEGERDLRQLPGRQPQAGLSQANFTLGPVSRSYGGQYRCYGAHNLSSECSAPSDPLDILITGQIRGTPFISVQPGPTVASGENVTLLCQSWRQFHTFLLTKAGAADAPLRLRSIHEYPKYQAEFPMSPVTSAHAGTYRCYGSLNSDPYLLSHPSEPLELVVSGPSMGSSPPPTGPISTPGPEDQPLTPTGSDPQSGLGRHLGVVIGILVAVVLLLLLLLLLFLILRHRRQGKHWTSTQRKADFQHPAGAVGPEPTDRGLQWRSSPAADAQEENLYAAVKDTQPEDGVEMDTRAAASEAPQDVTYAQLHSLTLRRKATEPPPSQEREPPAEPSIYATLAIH
T2 sequence (Q8N423 22-458 limits assumed): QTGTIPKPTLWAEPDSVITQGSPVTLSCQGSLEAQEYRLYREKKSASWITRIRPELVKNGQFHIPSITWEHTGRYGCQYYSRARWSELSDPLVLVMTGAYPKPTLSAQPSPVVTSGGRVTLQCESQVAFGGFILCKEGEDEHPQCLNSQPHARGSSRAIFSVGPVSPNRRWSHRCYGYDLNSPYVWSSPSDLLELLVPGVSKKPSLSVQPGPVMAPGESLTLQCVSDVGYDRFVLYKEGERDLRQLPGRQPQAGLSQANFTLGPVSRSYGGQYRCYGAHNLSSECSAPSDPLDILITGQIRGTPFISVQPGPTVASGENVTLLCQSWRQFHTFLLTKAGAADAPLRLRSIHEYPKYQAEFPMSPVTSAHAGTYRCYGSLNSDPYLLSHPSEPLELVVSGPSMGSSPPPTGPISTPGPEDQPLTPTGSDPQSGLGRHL
Chain of huLILRA5 (A6NI73 42-268 limits assumed): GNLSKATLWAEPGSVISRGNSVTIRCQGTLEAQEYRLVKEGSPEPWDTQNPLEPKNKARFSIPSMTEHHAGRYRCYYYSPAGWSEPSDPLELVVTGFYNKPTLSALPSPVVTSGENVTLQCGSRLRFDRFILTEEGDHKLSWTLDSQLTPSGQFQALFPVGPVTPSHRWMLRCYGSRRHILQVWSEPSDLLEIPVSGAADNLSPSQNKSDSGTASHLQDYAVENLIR
Chain of huLILRA2 (Q8N149 24-449 limits assumed): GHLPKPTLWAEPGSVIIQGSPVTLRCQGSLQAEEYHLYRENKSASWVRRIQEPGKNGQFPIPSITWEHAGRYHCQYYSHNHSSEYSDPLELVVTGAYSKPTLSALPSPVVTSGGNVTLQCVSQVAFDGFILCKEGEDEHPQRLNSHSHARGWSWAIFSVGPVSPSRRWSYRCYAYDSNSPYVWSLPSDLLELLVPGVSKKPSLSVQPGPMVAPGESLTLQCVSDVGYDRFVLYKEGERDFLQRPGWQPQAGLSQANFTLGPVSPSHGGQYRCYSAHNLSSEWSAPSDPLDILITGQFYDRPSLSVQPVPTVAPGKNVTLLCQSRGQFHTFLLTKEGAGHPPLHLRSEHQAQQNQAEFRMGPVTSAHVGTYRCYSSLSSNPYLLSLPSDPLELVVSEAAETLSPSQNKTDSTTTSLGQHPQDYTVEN
Chain of huLILRA1 (O75019 17-461 limits assumed): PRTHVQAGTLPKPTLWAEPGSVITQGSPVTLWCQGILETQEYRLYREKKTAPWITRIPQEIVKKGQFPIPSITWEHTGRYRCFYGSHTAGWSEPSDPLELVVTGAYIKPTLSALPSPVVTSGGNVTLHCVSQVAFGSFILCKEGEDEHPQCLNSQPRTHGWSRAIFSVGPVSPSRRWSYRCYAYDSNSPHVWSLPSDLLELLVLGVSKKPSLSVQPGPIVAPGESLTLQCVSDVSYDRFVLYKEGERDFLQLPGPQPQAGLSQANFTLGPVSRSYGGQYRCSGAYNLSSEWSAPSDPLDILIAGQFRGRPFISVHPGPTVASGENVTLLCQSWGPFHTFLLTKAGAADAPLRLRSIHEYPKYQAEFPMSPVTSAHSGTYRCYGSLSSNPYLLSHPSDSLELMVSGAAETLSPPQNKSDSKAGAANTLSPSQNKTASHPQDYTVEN

B1: anti-LILRB2 antibody Ab-B2-1825 (antibody, human IgG1, lambda, V domains shown)
VH: EVQLLESGGGLVQPGGSLRLSCAASGFTFSSYAMSWVRQAPGKGLEWVSAISGSGGSTYYADSVKGRFTISRDNSKNTLYLQMNSLRAEDTAVYYCWRWLNLGDAFDIWGQGTMVTVSS
VL: QSVLTQPPSASGTPGQRVTISCTGSSSNIGSNTVNWYQQLPGTAPKLLIYSDNQRPSGVPDRFSGSTSGTSASLAISGLRSEDEADYFCATWEDVLAGYVVFGGGTKLTVLG
binding result (huLILRA1): no binding | binding result (huLILRA2): no binding | binding result (huLILRA5): no binding | EC50 [1]: 3.43 nM | Kd [2]: 0.59 nM | koff [2]: 0.000276 s⁻¹ | kon [2]: 810000 M⁻¹ s⁻¹ | t½ [2]: 54.2 min | IC50 [3]: ≥ 1.7 nM | IC50 [4]: ≤ 6 nM
